Experimental findings from article PMC9701186 (Nature Communications, 2022) are described below.

The target in test [1] is Aigai virus strain Pentalofos GP38 (Aigai virus, strain Pentalofos, UniProt A0A2P1JMM7, strain). Nature of the test: BLI; […]; antibody (1 µg/mL) […] (AHC) sensors; […]; 300 s association, 600 s dissociation; global 1:1 fit. Conditions: both partners purified. In general terms: BLI is a label-free optical method that tracks binding on a fibre tip over time.
Test [2] shares this target. Kind of test: BLI; […]; mAb (1 µg/mL) […] (AHC) sensors; […]; 1× Octet kinetics buffer; global 1:1 fit. Conditions: both partners purified.

B1: human chimeric 13G8 mAb (c13G8) (antibody, V domains shown)
VH: DVQLQQSGPGLVAPSQSLSITCTVSGFSLTNYGIHWVRQPPGKGLEWLGVIWAGGYTKYNSALMSRLSMSKDNSKSQVFLKMNSLQTDDTAMYYCARDEVRRDYYAMDHWGQGTTVTVSS
VL: DIQMTQSPAILSASPGEKVTMTCWASSGVSYMHWYQQKPGSSPKPWIFATSNLASGVPARFSGSGSGTSYSLTISRVEAEDAATYYCQQWSFNPLTFGAGTKLEIK
notes: copies: 2 + 2
For B1, the binding result in test [1] is recorded as “no binding (tested: 100nM)”.

B2: human chimeric 13G8 mAb (c13G8) (antibody, V domains shown)
VH: DVQLQQSGPGLVAPSQSLSITCTVSGFSLTNYGIHWVRQPPGKGLEWLGVIWAGGYTKYNSALMSRLSMSKDNSKSQVFLKMNSLQTDDTAMYYCARDEVRRDYYAMDHWGQGTTVTVSS
VL: DIQMTQSPAILSASPGEKVTMTCWASSGVSYMHWYQQKPGSSPKPWIFATSNLASGVPARFSGSGSGTSYSLTISRVEAEDAATYYCQQWSFNPLTFGAGTKLEIK
notes: source: Expi293 cells, purified (mAb Select Sure column)
As for B2, the binding result in test [2] is “no binding (tested: up to 20.0 nM GP38)”.

B3: CC5-17 mAb (antibody, V domains shown)
VH: EVQLVQSGAEVKKPGESLRISCKGSGYSFTSYWIGWVRQMPGKGLEWMGIIYPGDSDTRYSPSFQGQVTISADKSISTAYLQWTSLKASDTAMYYCARQLGGSSFGNYYDSGSYYTAAYWGQGTLVTVSS
VL: DIQMTQSPSSLSASVGDRVTITCRASQSINNYLNWYQQKPGKAPKLLIYAASTLQSGVPSRFSGSGSGTDFTLTISSLQPEDFASYYCQQSYRGTFGQGTKVEFK
notes: copies: 2 + 2
Take B3: the binding result in test [1] is on record as “no binding (tested: 100nM)”.

B4: CC5-17 mAb (antibody, V domains shown)
VH: EVQLVQSGAEVKKPGESLRISCKGSGYSFTSYWIGWVRQMPGKGLEWMGIIYPGDSDTRYSPSFQGQVTISADKSISTAYLQWTSLKASDTAMYYCARQLGGSSFGNYYDSGSYYTAAYWGQGTLVTVSS
VL: DIQMTQSPSSLSASVGDRVTITCRASQSINNYLNWYQQKPGKAPKLLIYAASTLQSGVPSRFSGSGSGTDFTLTISSLQPEDFASYYCQQSYRGTFGQGTKVEFK
On to B4, for which the binding result in test [2] was “no binding (tested: up to 20.0 nM GP38)”.
